From paper PMC2973827

Target: SARS-CoV nsp12 (RdRp) (SARS-coronavirus, UniProt P0C6X7 4370-5301)
Assay: EMSA; no Zn2+
Conditions: protein: recombinant; tags: C-terminal His6 (plasmid pASK3-Ub-nsp12-CHis6, ubiquitin fusion vector); label: 5' 32P

B1: SAV557R/SAV481R primed template duplex (dsRNA)
RNA 1: GCUAUGUGAGAUUAAGUUAU
RNA 2: UUUUUUUUUUAUAACUUAAUCUCACAUAGC
B1: binds.
